Article PMC9645710, “Cryo-EM structures of peripherin-2 and ROM1 suggest multiple roles in photoreceptor membrane morphogenesis” (Science Advances, 2022)

What was measured:
[1] = biological target: T1, ROM1 (human rod outer segment membrane protein 1, N-terminal Strep3-GFP tag) (human, UniProt Q03395 1-351); test: cryo-EM structure; PRPH2^C150S-ROM1 purified in 25 mM tris-HCl, 150 mM NaCl, pH 7.5, 0.025% DDM/CHS, incubated with an excess of Nanobody19, ~9 mg/ml; single-particle map at 3.7 A; settings: both partners purified
T1 construct: rod outer segment membrane protein 1 (ROM1), human, full length; codon-optimized cDNA from GeneArt in a pUPE vector; Residues 323 to 351 were not modelled in the structure; also called retinal outer segment protein 1; source: HEK293T, transiently transfected together with PRPH2^C150S, solubilized in DDM/CHS, purified (Strep-Tactin, SEC); not shown: Strep3, N-terminal, kept

[2] = biological target: the molecule itself; test: SEC; PRPH2 and ROM1 (wild type or cysteine mutants) expressed in HEK293T, solubilized in DDM/CHS; Superdex 200 Increase 10/300 GL, 25 mM tris-HCl, 150 mM NaCl, pH 7.5, 0.025% DDM/CHS; no reducing agent
[3] = biological target: T2, ROM1 (human rod outer segment membrane protein 1, wild type, N-terminal Strep3 tag) (human, UniProt Q03395 1-351); test: cryo-EM structure; wild-type PRPH2-ROM1, one SEC fraction of heterogeneous complexes in 0.025% DDM/CHS, ~3.6 mg/ml; maps of tetramer, hexamer and octamer at ~7-8 A with the heterodimer docked in; the sizes count chains of PRPH2 and ROM1 together; settings: both partners purified
T2 construct: rod outer segment membrane protein 1 (ROM1), human, full length; codon-optimized cDNA from GeneArt in a pUPE vector; source: HEK293T, transiently transfected together with PRPH2, solubilized in DDM/CHS, purified (Strep-Tactin, SEC); not shown: Strep3, N-terminal, kept

[4] = biological target: T3, ROM1 (human rod outer segment membrane protein 1, N-terminal Strep3-GFP tag) (human, UniProt Q03395); test: cryo-EM structure; PRPH2^C150S-ROM1 purified in 25 mM tris-HCl, 150 mM NaCl, pH 7.5, 0.025% DDM/CHS, incubated with an excess of Nanobody19, ~9 mg/ml; single-particle map at 3.7 A; settings: both partners purified
T3 construct: rod outer segment membrane protein 1 (ROM1), human, full length; codon-optimized cDNA from GeneArt in a pUPE vector; Residues 323 to 351 were not modelled in the structure; also called retinal outer segment protein 1; source: HEK293T, transiently transfected together with PRPH2^C150S, solubilized in DDM/CHS, purified (Strep-Tactin, SEC); not shown: Strep3, N-terminal, kept

[5] = biological target: T4, PRPH2^C150S-ROM1 heterodimer (human, UniProt P23942;Q03395, C150S, N-acetylglucosamine on Asn229 (density in the map); possible glycosylation at Asn53); test: as above; settings: both partners purified
T4 construct: peripherin-2 (PRPH2), human, full length; as m1; rod outer segment membrane protein 1 (ROM1), human, full length; as m2; Formed and purified before Nanobody19 was added; also called PRPH2^C150S-ROM1 complex; PRPH2-ROM1 heterodimer; source: HEK293T, transiently co-transfected, solubilized in DDM/CHS, purified (Strep-Tactin, SEC); not shown: Strep3, N-terminal, kept; copies: 1 + 1
T4 sequence (Q03395 whole entry, stated change not applied, one chain of several): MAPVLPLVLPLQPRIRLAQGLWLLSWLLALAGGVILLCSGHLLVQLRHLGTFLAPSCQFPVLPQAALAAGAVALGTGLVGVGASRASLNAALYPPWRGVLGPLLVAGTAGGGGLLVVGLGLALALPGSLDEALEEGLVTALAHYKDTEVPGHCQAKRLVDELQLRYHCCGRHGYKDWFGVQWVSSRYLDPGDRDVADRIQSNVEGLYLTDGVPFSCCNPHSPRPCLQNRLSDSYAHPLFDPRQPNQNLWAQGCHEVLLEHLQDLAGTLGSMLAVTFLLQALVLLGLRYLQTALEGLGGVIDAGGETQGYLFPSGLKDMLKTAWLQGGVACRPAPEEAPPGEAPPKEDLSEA

T2 sequence (Q03395 whole entry): as the sequence (Q03395 whole entry, stated change not applied, one chain of several) above

B1: PRPH2^C150S (human peripherin-2 with mutation C150S, N-terminal 6x-His tag) (natural protein, UniProt P23942 1-346, looked up)
chain: MALLKVKFDQKKRVKLAQGLWLMNWFSVLAGIIIFSLGLFLKIELRKRSDVMNNSESHFVPNSLIGMGVLSCVFNSLAGKICYDALDPAKYARWKPWLKPYLAICVLFNIILFLVALCCFLLRGSLENTLGQGLKNGMKYYRDTDTPGRSFMKKTIDMLQIEFKCCGNNGFRDWFEIQWISNRYLDFSSKEVKDRIKSNVDGRYLVDGVPFSCCNPSSPRPCIQYQITNNSAHYSYDHQTEELNLWVRGCRAALLSYYSSLMNSMGVVTLLIWLFEVTITIGLRYLQTSLDGVSNPEESESESQGWLLERSVPETWKAFLESVKKLGKGNQVEAEGADAGQAPEAG
modifications: N-acetylglucosamine on Asn229 (density in the map); possible glycosylation at Asn53
notes: peripherin-2 (PRPH2), human, full length; codon-optimized cDNA from GeneArt in a pUPE vector; Residues 322 to 346 were not modelled in the structure; source: HEK293T, transiently transfected together with ROM1, solubilized in DDM/CHS, purified (Strep-Tactin through ROM1, SEC)
binding result [1]: binds

B2: PRPH2 (human peripherin-2, wild type, N-terminal 6x-His tag) (natural protein, UniProt P23942 1-346, looked up)
chain: MALLKVKFDQKKRVKLAQGLWLMNWFSVLAGIIIFSLGLFLKIELRKRSDVMNNSESHFVPNSLIGMGVLSCVFNSLAGKICYDALDPAKYARWKPWLKPYLAICVLFNIILFLVALCCFLLRGSLENTLGQGLKNGMKYYRDTDTPGRCFMKKTIDMLQIEFKCCGNNGFRDWFEIQWISNRYLDFSSKEVKDRIKSNVDGRYLVDGVPFSCCNPSSPRPCIQYQITNNSAHYSYDHQTEELNLWVRGCRAALLSYYSSLMNSMGVVTLLIWLFEVTITIGLRYLQTSLDGVSNPEESESESQGWLLERSVPETWKAFLESVKKLGKGNQVEAEGADAGQAPEAG
notes: peripherin-2 (PRPH2), human, full length; codon-optimized cDNA from GeneArt in a pUPE vector; The tag is told for the oligomer preparation; source: HEK293T, transiently transfected together with ROM1, solubilized in DDM/CHS, purified (Strep-Tactin through ROM1, SEC)
stoichiometry N [2]: 2
binding result [3]: binds

B3: Nanobody19 (VHH)
VHH: QVQLQESGGGLVQAGGSLRLSCAASTRTTSRYTVGWFCQAPGKEREFVAAVHWSGGSTWYADSVKGRFTISRDNAKNTVYLQMNSLKQEDTAVYYCAAAEPRRYSYYMRPDEYNYWGQGTQVTVSS
notes: modelled in the deposited structure PDB 7ZW1; also called Nb19; source: E. coli BL21(DE3), purified (Ni-NTA, SEC)
binding result [4]: binds
stoichiometry N [5]: 1
